The values below are quoted from earlier work in publication PMC2853873.

Read-outs that look alike come from different tables or passages of the source.

In series [1] the target is ADAMTS-2 (Homo sapiens) (UniProt O95450).
Series [2] has the same target. The source holds these as a separate data set.

UniProt O95450, sequence (O95450 254-1211): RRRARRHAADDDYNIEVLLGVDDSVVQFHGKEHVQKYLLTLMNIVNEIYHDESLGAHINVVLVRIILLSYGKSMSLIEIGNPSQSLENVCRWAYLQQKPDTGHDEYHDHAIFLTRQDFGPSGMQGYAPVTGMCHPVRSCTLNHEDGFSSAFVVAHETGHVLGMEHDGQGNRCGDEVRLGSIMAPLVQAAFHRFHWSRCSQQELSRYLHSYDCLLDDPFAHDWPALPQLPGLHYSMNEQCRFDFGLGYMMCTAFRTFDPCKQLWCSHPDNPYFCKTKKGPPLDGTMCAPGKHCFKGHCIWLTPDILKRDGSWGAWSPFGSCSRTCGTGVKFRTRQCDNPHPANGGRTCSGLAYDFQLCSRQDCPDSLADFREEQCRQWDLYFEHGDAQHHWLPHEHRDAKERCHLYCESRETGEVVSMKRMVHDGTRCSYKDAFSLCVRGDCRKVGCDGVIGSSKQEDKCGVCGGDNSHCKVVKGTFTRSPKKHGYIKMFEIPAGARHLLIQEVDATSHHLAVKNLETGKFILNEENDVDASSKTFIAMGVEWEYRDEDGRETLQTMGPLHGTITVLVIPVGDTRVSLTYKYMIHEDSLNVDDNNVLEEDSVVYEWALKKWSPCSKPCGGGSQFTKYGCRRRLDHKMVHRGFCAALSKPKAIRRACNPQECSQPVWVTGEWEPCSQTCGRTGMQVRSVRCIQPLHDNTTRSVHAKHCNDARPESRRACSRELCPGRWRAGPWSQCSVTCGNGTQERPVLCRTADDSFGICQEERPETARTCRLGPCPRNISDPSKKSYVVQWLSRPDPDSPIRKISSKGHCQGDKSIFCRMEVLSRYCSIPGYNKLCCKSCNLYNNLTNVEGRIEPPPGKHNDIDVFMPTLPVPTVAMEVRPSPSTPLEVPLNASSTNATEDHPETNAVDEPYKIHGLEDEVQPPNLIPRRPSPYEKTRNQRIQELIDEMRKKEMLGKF

One may read the Ki as the dissociation constant of the complex between target and ligand, obtained from inhibition or displacement. “N-TIMP-3 N-terminal domain (from UniProt P35625)”: the values for the Ki in series [1] and in series [2] were 600 nM and 160 nM, respectively.
